Assay: yeast display, Sf9 membrane polyspecificity reagent, FACS + sequencing; frameworks hold sequencing errors
Outline: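 In a synthetic yeast display library (Saccharomyces cerevisiae BJ5465), nanobody expression was induced with galactose for 36–48 hours. FACS gates were set low and high (top ~1%) using anti-HA fluorescence for expression and streptavidin fluorescence for binding of the Sf9 membrane reagent. Each polyreactivity label is drawn from the gate of origin.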

Row | Sequence | polyreactivity (PSR sort gate)
1 | QVQLVESGGGLVQAGGSLRLSCAASVSIFKVNAMGWYRQAPGKERELVAAISTSGSRTYYADSVKGRFTISRDNAKNTVYLQMNSLKPEDTAVYYCADDSYAGIVRYGYWGKGTQVTVSS | high polyreactivity
2 | QVQLVESGGGLVQAGGSLRLSCAASVSNFPPYVMGWYRQAPGKERELVAAITWSSGSTYYADSVKGRFTISRDNAKNTVYLQMNRLKPEDTAVYYCAAVLPFKYDYWGQGTQVTVSS | low polyreactivity
3 | QVQLVESGGGLVQAGGSLRLSCAASVSTFAYYAMGWYRQAPGKERELVAVISVSGDGTSTYYADSVKGRFTISRDNAKNTVYLQMNSLKPEDTAVYNCAAEQVLVGGHTYYLTYDYWGQGTQVTVSS | low polyreactivity
4 | QVQLVESGGGLVQAGGSLRLSCAASVSTFSGYAMGWYRQAPGKERELVAAISSSGGGTYYADSVKGRFTISRDNAKNTVYLQMNSLKPEDTAVFYCAAYKYFLGFVWYDYWGQGTQVTVSS | high polyreactivity
5 | QVQLVESGGGLVQAGGSLRLSCAASVSTIARYAMGRYRQAPGKERELVAAISRTGRTYYADSVKGRFTISRDNAKNTVYLQMNSLKPEDTAVYYCNAYYGPRGYGYWGQGTQVTVSS | high polyreactivity
6 | QVQLVESGGGLVQAGGSLRLSCAASVSTLRYYAMGWYRQAPGKERELVAAISYSGGSTYYADSVKGRFTISRDNAKNTVYLQMNRLKPEDTAVYYCNAEWGWRRYGSSYVYWGQGTQVTVSS | high polyreactivity
7 | QVQLVESGGGLVQAGGSLRLSCAASVYAMGWYRQAPGKERELVAAITDSGSTNYADSVKGRFTISRDNAKNTVYLQMNSLKPEDNAVYYCNADPYYATGSWARLPLYQYDYWGQGTQVTVSS | low polyreactivity
8 | QVQLVESGGGLVQAGGSLRLSCAASVYGMGWYRQAPGKERELVAAISNGGTTYYADSVKGRFTISRDNAKNTVYLQMNSLKPEDTAVYYCARSYRSDGSRFGYWGQGTQVTVSS | low polyreactivity
9 | QVQLVESGGGLVQAGGSLRLSCAATGFIVAWYAMGWYRQAPGKERELVAAISSSVGSTYYADSVKGRFTISRDIAKNTVYLQMNSLKPEDTAVYYCNADEYWASGYDPYDYWGQGTQVTVSS | low polyreactivity
10 | QVQLVESGGGLVQAGGSLRLSCAATGFTFEYYAMGWYRKAPGKERELVAAITSGGSTNYADSVKVRFTISRDNAKNTVSLQKNSLKPEDTAVYYCATSGNNYYYALYGYWGQGTQVTVSS | low polyreactivity
11 | QVQLVESGGGLVQAGGSLRLSCAATGFTFHHYVMGWYRHAHGKEREFVASIRWRGGSTYYADSVKGRFTISRDNAKNTVYLQMNSLKPEDTAVYYCAADSFTYWSWLHGYWGQGTQVTVSS | high polyreactivity
12 | QVQLVESGGGLVQAGGSLRLSCAATGFTFRWYAMGWYRQAPGKERELVAAITSDDNTYYADSVKGRFTISRDNAKNTVYLQMNSLKPEDTAVYYCAAEYADYWTYIMGYWGQGTQVTVSS | low polyreactivity
13 | QVQLVESGGGLVQAGGSLRLSCAATGHTFHGYAMGWYRPAPGKERELVAAITSTGGSTHYADSVKGRFTISRDNAKNTVYLQMNSLKPEDTAVYYCAKRSYGLTRAYSAGNYWGQGTQVTVSS | low polyreactivity
14 | QVQLVESGGGLVQAGGSLRLSCAATGIIFSWYDMGWYRQAPGKERELVAAITSGGSTYYADSVKGRFTISRDNAKNTVYLLMNSLKPEDTAVYYCNRYSYLFPYYWKYDYCGQGTQVTVSS | high polyreactivity
15 | QVQLVESGGGLVQAGGSLRLSCAATGITFYINAMGSYRQAPGKERELVAVIDSRGSSTFYADSVKGRFTISLDYAKNTVYLQMNSLKPEDTAVYYCAVEGYPGRYRDPGDLYYYWGQGTQVTVSS | low polyreactivity
16 | QVQLVESGGGLVQAGGSLRLSCAATGRIFAYNTMGWYRQAPGKERELVAVITSGGSTNYADSVKGRFTISRDNAKNTVYLQMNSLNPEDTAVYYCAKRPYGRSGGSRYDYWGQGTQVTVSS | high polyreactivity
17 | QVQLVESGGGLVQAGGSLRLSCAATGRIFDYNVMGWSRQAPGKERELVADINGCGGRTNYADSVKGRFTISRDNAKNSVYLQMNSLKPEDTAVYDCAAEWYSYGARSSYGGSRNDYWGQGSQVTVSS | low polyreactivity
18 | QVQLVESGGGLVQAGGSLRLSCAATGRIFGQNAMGWYRQAPGKERELVAAINWSVGSTYYADSVKGRFTISRDNAKNTVYLQMNSLKPEDTGVYYCAAGNLYYAEYDYWGQGTQVTVSS | low polyreactivity
19 | QVQLVESGGGLVQAGGSLRLSCAATGRIFSIYAMGWYRQAPGKERELVAAISGGGSTYYADSVKGRFTISRDNAKNTVYLQMNSLKPEDTAVYYCAALQSYYRYFGYDYWGQGTQVTVSS | low polyreactivity
20 | QVQLVESGGGLVQAGGSLRLSCAATGRIFTRNAMGWYRQAPGKERELVAAISYSGGTTYYADSVKGRFTISRDNAKITVYLQMNSLKPDDTAVYDCAALRPTQRYFTYDYWGHGTQVTVSS | high polyreactivity
21 | QVQLVESGGGLVQAGGSLRLSCAATGRIFWDYAMGWYRQAPGKERELVAANAWGSGRTYYADSVKGRFTISRDNAKNTVNLQMNSLKPEDTAVYYCHAVRYLFIYPRYDYWGQGTQVTVSS | high polyreactivity
22 | QVQLVESGGGLVQAGGSLRLSCAATGRIFYPYAMGWYRQAPGKERELVATIRWRGGSTRYADSVKGRFTISRDNAKNTVFLQMNSLKPEDTAVYYCAAGFKVEPTDLYYWGQGTQVTVSS | high polyreactivity

Row | Sequence | polyreactivity (PSR sort gate)
23 | QVQLVESGGGLVQAGGSLRLSCAATGRTIHGYAMGWYRQAPGKERELVAAITGTGGRTYYADSVKGRFTISRDNAKNTVYLQMNSLKPEDTAVYYCAARPWIKSGYWGQGTQVTVSS | high polyreactivity
24 | QVQLVESGGGLVQAGGSLRLSCAATGSIFIRYAIGWYRHEPGKERELVAAITSTGSTSYADSVKWRFTISRDNAKNTVYLQMNSLKPEDTAVYYCAAAGFWHGYFGYGYWGQGTQVTVSS | low polyreactivity
25 | QVQLVESGGGLVQAGGSLRLSCAATGSIFNVNAMGWYRQAPGKERELVAAISSGGDTYYADSVKGRFTISRDNAKNTVYIQMNSLQPEDTAVYYCAKQSYTLYTLLYDYWGQGTQVTVSS | low polyreactivity
26 | QVQLVESGGGLVQAGGSLRLSCAATGSIFRRNAMGGYRQAPGKERELVAAISSNGGSTYYADSVKGRFTISRDNAKNTVYLQMNSLKPEDTAVYYCNALGRVRYPFDYWGQGTQVTVSS | high polyreactivity
27 | QVQLVESGGGLVQAGGSLRLSCAATGSNLIYVMGGYRQAPGKERELVASITFSGGSTYYADSVKGRFTISRDNAKNTVYLQMNRLKPEDTAVYYCAAVPLWDYKFFYYMLYDYWGQGTQVTVSS | low polyreactivity
28 | QVQLVESGGGLVQAGGSLRLSCAAWSIFYLNAMGLYRQAPGKERELVAAISWGGGSTNYADSVKGRFTISRDNAKNTVYLQMNSLKPEDTAVYYCARTPESLSAREFNYWGQGTEVTVSS | low polyreactivity
29 | QVQLVESGGGLVQAGGSLRLSCAAYGFFFPFYTMGWYRQAPGKERELVAAIRYSAGRTYYADSVKGRFTISRDNAKNTVYLQMNSLKPEDTAVYYCAADAIYSRAWGFDYWGQGTQVTVSS | high polyreactivity
30 | QVQLVESGGGLVQAGGSLRLSCAAYGFISPSYAMGWYRQAPGKERELVAAIRSSDGSTYYADSVKGRFTISRDNAKNTVYLQMNSLKPEDTAVYYCAARRVTSPFGSDSWGQGTQVTVSS | low polyreactivity
31 | QVQLVESGGGLVQAGGSLRLSCAAYGFIVPAYAMGWYRQAPGKERELVAAISWDGGSTYYADSVKGRFTISRDNAKNTVYLQMNSLKPEDTPVYYCAATFFADTWYGWYDYWGQGTQVTVSS | high polyreactivity
32 | QVQLVESGGGLVQAGGSLRLSCAAYGFTFAFYALGRYRQSPGKERELVAAITGSGGSTYYADSVKGRFTISRDNSKNTVYLQMNSLKPEDTAVYYCNTYTYYSRMDYWGQGTQVTVSS | high polyreactivity
33 | QVQLVESGGGLVQAGGSLRLSCAAYGGIFPSYAMGWYRQAPGKERELVAAISRTGGSTYYADSVKGRFTISRDNAKNTVYLQMNSLKPEDTAVYYCAAEWAWYLGVYRRDRMYWGQGTQVTVSS | high polyreactivity
34 | QVQLVESGGGLVQAGGSLRLSCAAYGINFLQYAMGWYRQAPGKDRELVAAITRRGDRTYYADSVKGRFTISRDNAKYTVYLQMISLKPEDTAVYYCAASYWYRDYYYWGQGTQVTVSS | high polyreactivity
35 | QVQLVESGGGLVQAGGSLRLSCAAYGLTFRVYTMGWYRQAPGKERELVAAISTDGGSTYYADSVKGRFTISRDNAKNTVYFQMNSLKPEDTAVYYCAAKWYSYRWTQFDYWGQGTQVSVSS | high polyreactivity
36 | QVQLVESGGGLVQAGGSLRLSCAAYGNIFHRNAMGWYRKAPGKESEVVAAISWSGGSTYYADSVKGRFTISRDNAKNTVYLQMNSLKPEDTAVYYCNAYYYYRFKQSHPGLRSYYWGQGTQVTVSS | high polyreactivity
37 | QVQLVESGGGLVQAGGSLRLSCAAYGNIIYYNAMGWYRQATGKERELVASITWSGGSTYYADSVKGRFTISRDNAKNTVYLQMNSLKPEDTAVYYCAAGYSPPKPYSGGYYYWGQGTQVTVSS | low polyreactivity
38 | QVQLVESGGGLVQAGGSLRLSCAAYGRIFSRNAMGWYRQAPGKERELVAAITSSGGSTYYADSVKGRFTISRDNAKNTVYLQMNSLKPEDTAVYYCNAVSRWWPAGFDYWGQGTQVTVSS | high polyreactivity
39 | QVQLVESGGGLVQAGGSLRLSCAAYGRIFSYYAMGWYRQAPGKERELVATINSGGSTNYADSVKGRFTISRDNAKNTVYLQMNSLKPEDTAVYYCDASPVWWYDYWGQGTQVTVSS | low polyreactivity
40 | QVQLVESGGGLVQAGGSLRLSCAAYGRILRYYAMGWYRQAPGKERELVASITSGGSTYYADSVKGRFTISRDNAKNTVYLQMNSLKPEDTAVYYCAARNIYRVDLSYYAYDYWGQGTQVTVSS | high polyreactivity
41 | QVQLVESGGGLVQAGGSLRLSCAAYGRTFIVNTMGWYRQAPGKERQLVAAITARGGRTYYADSVKGRFTISRDNAKNTVYLQMNSLKPEDTAVYYCNARTPPREAERYYWGQGTQVTVSS | low polyreactivity
42 | QVQLVESGGGLVQAGGSLRLSCAAYGRTFRTNAMGWYRQAPGKERELVAAISTGGGITNYADSVKGRFTISRDNAKNTVYLQMNSLKPEDTAVYYCNADIYTWFQIGGYQYDYWGQGTQVTVSS | low polyreactivity
43 | QVQLVESGGGLVQAGGSLRLSCAAYGRTFSHYAMGWYRQAPGKERELVAGITSGGRTYYADSVKGRFTISRDNAKNTVYLQMNSLKPEDTEVYYCAIRRYTAIWYGYWGQGTQETVSS | high polyreactivity

— the nanobody polyreactivity screen of Harvey et al. (2022)
